The target in assay [1] is T1, CEACAM5 on transfected HeLa cells (human, UniProt P06731 35-685).
T1 construct: whole, on cells; also called HeLa-CEACAM5; HeLa C5
T1 sequence (looked up): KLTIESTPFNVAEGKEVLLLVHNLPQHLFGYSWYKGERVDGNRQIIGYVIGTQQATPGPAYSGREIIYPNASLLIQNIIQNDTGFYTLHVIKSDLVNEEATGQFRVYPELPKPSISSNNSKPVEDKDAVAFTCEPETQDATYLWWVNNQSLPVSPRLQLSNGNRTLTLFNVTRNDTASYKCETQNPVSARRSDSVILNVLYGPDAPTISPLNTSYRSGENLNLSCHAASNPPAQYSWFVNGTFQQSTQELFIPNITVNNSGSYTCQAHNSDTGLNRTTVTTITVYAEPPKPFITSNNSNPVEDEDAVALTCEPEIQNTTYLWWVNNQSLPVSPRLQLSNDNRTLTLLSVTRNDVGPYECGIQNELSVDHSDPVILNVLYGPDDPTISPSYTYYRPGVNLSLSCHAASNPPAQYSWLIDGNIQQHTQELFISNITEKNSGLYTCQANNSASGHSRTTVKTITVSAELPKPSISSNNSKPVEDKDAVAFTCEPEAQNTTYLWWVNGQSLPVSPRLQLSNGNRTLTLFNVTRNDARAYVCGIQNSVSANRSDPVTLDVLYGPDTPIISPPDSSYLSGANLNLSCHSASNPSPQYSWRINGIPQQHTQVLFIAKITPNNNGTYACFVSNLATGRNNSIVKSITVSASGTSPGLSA
As to the kind of experiment: flow cytometry, transfected HeLa.

In assay [2] the target is T2, CEACAM1 on transfected HeLa cells (human, UniProt P13688 35-526).
T2 construct: also called HeLa-CEACAM1; HeLa C1
T2 sequence: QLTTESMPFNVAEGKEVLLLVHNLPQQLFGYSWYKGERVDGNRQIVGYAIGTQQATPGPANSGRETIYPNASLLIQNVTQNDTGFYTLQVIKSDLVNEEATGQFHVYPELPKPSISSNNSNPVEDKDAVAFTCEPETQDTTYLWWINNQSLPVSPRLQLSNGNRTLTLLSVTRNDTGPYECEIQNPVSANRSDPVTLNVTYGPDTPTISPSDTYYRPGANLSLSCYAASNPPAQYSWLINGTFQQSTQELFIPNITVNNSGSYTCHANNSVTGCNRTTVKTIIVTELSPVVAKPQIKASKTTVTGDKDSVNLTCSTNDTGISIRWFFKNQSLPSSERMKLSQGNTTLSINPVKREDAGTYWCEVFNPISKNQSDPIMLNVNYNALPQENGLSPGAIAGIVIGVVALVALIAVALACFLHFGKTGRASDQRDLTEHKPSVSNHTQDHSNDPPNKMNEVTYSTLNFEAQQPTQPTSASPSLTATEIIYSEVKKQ
As to the kind of experiment: flow cytometry, transfected HeLa.

The target of assay [3] is T3, CEACAM6 on transfected HeLa cells (human, UniProt P40199 35-320).
T3 construct: whole, on cells; also called HeLa-CEACAM6; HeLa C6
T3 sequence (looked up): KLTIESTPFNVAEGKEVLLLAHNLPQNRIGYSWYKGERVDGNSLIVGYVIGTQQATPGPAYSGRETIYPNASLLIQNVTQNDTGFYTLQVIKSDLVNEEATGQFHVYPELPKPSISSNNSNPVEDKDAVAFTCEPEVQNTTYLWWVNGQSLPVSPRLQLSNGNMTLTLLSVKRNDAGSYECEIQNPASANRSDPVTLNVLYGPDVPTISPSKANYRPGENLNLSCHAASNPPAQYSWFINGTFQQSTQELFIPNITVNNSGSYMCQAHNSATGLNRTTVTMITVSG
As to the kind of experiment: flow cytometry, transfected HeLa.

In assay [4] the target is T4, CEACAM3 on transfected HeLa cells (human, UniProt P40198 35-252).
T4 construct: whole, on cells; also called HeLa-CEACAM3; HeLa C3
T4 sequence (looked up): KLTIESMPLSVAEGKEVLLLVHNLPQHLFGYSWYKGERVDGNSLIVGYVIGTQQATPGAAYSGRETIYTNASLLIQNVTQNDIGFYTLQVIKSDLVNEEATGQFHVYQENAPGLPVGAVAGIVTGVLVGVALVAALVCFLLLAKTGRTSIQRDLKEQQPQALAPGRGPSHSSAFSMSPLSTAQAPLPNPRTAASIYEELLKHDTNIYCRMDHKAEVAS
As to the kind of experiment: flow cytometry, HeLa-CEACAM3 transfectants, % staining, stacked bars. The source says: FIG. 11 illustrates the binding selectivity of different affinity-matured CEACAM1 antibodies. […] HELA cells were transfected with vector alone (HeLa-Neo) or vectors expressing CEACAM1, CEACAM3, CEACAM5, or CEACAM6, respectively, and stained with the indicated antibodies. […] MOPC=mouse IgG1 control antibody. Mouse antibodies as positive control for transfected CEACAM isoforms: Col-1=CEACAM3 and CEACAM5 antibody. 9A6=CEACAM6 antibody. T84.1=CEACAM cross-reactive antibody and T84.66=CEACAM5 antibody. Only 2nd FITC=No primary antibody, only secondary FITC conjugated antibody. […] Data for affinity-matured antibodies 9B3_8H3/Vκ8 S29A, 8H3_9B3/CP08_E05, and 8H3_9C2/CPO08_F05, as well as data for CEACAM8 antibody 80H3 were omitted from the FIG. due to an unusually high background signal.

In assay [5] the target is T5, His-tagged CEACAM1 (human, UniProt P13688 35-428).
T5 construct: 45 kDa SPR analyte; also called CEACAM1-HIS; CEACAM1 analyte
T5 sequence: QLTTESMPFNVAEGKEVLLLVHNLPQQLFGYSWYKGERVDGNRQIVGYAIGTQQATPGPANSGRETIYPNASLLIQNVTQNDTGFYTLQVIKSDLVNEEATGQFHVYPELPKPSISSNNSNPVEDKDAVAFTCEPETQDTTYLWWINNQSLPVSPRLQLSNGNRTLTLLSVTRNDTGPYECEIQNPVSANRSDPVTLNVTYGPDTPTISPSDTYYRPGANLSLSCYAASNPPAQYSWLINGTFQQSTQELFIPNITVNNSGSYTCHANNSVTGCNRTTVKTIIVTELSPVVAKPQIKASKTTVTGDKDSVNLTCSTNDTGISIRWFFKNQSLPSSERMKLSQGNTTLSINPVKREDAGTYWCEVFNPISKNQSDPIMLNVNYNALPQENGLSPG
As to the kind of experiment: SPR single-cycle, supernatant IgG captured. Put shortly:
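Humanized, affinity-matured IgGs from crude supernatant (0.5 μg/ml in HBS-P+) captured on Protein A to ~100 RU. Single-cycle kinetics: CEACAM1 at three concentrations, 70–280 nM two-fold, 80 μl/min, 80 s association each, 150 s dissociation. Reference-channel and blank-run subtraction applied.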

The target in assay [6] is T5, His-tagged CEACAM1. As to the kind of experiment: SPR single-cycle, purified IgG captured. Put shortly: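 Surface plasmon resonance single-cycle kinetics on a Biacore T200 at 25° C in HBS-P+ (pH 7.4). Purified IgG was captured on a Series S Protein A chip and His-tagged CEACAM1 was the analyte. Reference-channel and blank-run signals were subtracted. Kon, koff and Kd were fitted, and relative KD was calculated against the parent antibody assayed in the same experiment.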

A further assay has as its target T6, GST-CEACAM1 (human, UniProt P13688 35-141, limits assumed).
T6 construct: also called human CEACAM1-GST protein
T6 sequence: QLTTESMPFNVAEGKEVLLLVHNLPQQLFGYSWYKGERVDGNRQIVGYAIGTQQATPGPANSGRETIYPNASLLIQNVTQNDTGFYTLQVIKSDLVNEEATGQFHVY
As to the kind of experiment: competition ELISA vs parental murine antibody. As to the method:
The binding of the purified antibodies to human CEACAM1 was assessed in a competition ELISA assay. Nunc Immuno MaxiSorp 96 well flat bottom microtitre plates were pre-coated with 1 μg/ml of GST-CEACAM1 in 1×PBS, overnight at 4° C. The following day the plates were blocked for 1 hour at room temperature (“RT”) with 2% BSA/PBS before washing 3× with PBST pH 7.4. A 3-fold dilution series of the chimeric antibody chimeric antibody VH0/Vκ0, an irrelevant IgG4 antibody, and the humanized CEACAM1 antibodies from 100 μg/ml to 0.07 or 0.002 μg/ml were pre-mixed with a constant concentration of parental murine antibody (0.45 μg/ml final concentration), added to the plate and incubated for 1 hour at room temperature. Following 3×PBST washes, the binding of the parental murine CEACAM1 antibody was detected with an anti-mouse-HRP and TMB substrate. The reaction was stopped with 3 M HCl, absorbance read at 450 nm on a Dynex Technologies MRX TC II plate reader and the binding curves plotted. The binding of the humanized CEACAM antibody variants to CEACAM1 was compared to the chimeric antibody (VHO/Vκ0), which was included on each plate.

Assay [7] deals with T5, His-tagged CEACAM1. Description: SPR single-cycle, IgG captured. An outline of the steps:
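Biacore T200 single-cycle kinetics at 25° C in HBS-P+ (pH 7.4): antibodies (purified or HEK EBNA supernatant, 1 μg/ml) captured on Protein A to ~75 RU, His-tagged CEACAM1 analyte at 3.125–50 nM (5-point 2-fold) at 50 μl/min without regeneration. Reference channel Fc1 subtracted.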

The target of assay [8] is T5, His-tagged CEACAM1. As to the kind of experiment: SPR single-cycle, supernatant IgG captured. An outline of the steps: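 On a Biacore T200 run at 25° C in HBS-P+ (pH 7.4), IgG captured on Protein A was probed with His-tagged CEACAM1 by single-cycle surface plasmon resonance. Fitted Kon, koff and Kd gave a relative KD referenced to the parent antibody from the same experiment. The IgG came from filtered, ELISA-quantified supernatants of HEK EBNA cells transiently transfected with PEI and harvested after 5-7 days.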
This is another data set of the same source.

This note sets out measurements from patent publication US20250074980A1 (BRIGHAM AND WOMEN S HOSPITAL, published 2025).

As to irrelevant IgG4 antibody, the relative amount of cells bound in assay [1] stood at 1.02; in [2] it was 0.37; in assay [3] it was 1.39.

B1: 9B3_9E5/CP08E05 (antibody, IgG4, V domains shown)
VH: EVQLLESGGGLVQPGGSLRLSCAASGFTFNAHAISWVRQAPGKGLEWVATISSGGTYTYYPDSVKGRFTISRDNSKNTLYLQMNSLKAEDTAMYYCARHGFDYDAAWFAYWGQGTLVTVSS
VL: EIVLTQSPATLSLSPGERATLSCRANSAVSYMYWYQQKPGQAPRPWIYLTSNRATGVPARFSGSGSGTDYTLTISSLEPEDFAVYYCQQWTTNPPTFGQGTKLEIK
notes: IgG4 (S241P), kappa
B1: the binding result in assay [4] is on record as “binds”. In the assay with His-tagged CEACAM1 [5], the Kd is 67 nM, the koff stood at 0.0078 s⁻¹, the kon came out at 120000 M⁻¹ s⁻¹ and the “relative KD to parent” value was 8.3. Moreover, in the assay with His-tagged CEACAM1 [6], binding was characterised by a dissociation constant (Kd) of 61 nM, the koff turned out to be 0.007 s⁻¹, the kon came out at 110000 M⁻¹ s⁻¹ and the “relative KD to parent” value turned out to be 7.8.

B2: VH3/Vκ5 (antibody, IgG4, V domains shown)
VH: EVQLLESGGGLVQPGGSLRLSCAASGFIFSSHGMSWVRQAPGKGLEWVATISSGGTYTYYADSVKGRFTISRDNSKNTLYLQMNSLRAEDTAMYYCARHDFDYDAAWFAYWGQGTLVTVSS
VL: EIVLTQSPATLSLSPGERATLSCRANSSVSYMAWYQQKPGQAPRLLIYLTSNRATGIPARFSGSGSGTDFTLTISSLEPEDFAVYYCQQWSSNPPTFGQGTKLEIK
notes: IgG4 (S241P), kappa
For the molecule B2, the binding result in the assay with GST-CEACAM1 is “no binding (tested: 100 µg/ml)”; with His-tagged CEACAM1 [7], “no binding (tested: 50 nM)”.

B3: VH2/Vκ5 (antibody, IgG4, V domains shown)
VH: EVQLLESGGGLVQPGGSLRLSCAASGFIFSSHGMSWVRQAPGKGLEWVATISSGGTYTYYPDSVKGRFTISRDNSKNTLYLQMNSLRAEDTAMYYCARHDFDYDAAWFAYWGQGTLVTVSS
VL: EIVLTQSPATLSLSPGERATLSCRANSSVSYMAWYQQKPGQAPRLLIYLTSNRATGIPARFSGSGSGTDFTLTISSLEPEDFAVYYCQQWSSNPPTFGQGTKLEIK
notes: IgG4 (S241P), kappa
In the case of B3, the binding result with GST-CEACAM1 is on record as “no binding (tested: 100 µg/ml)”; with His-tagged CEACAM1 [7] it was “no binding (tested: 50 nM)”.

B4: CP09C02/CP08E05 (antibody, IgG4, V domains shown)
VH: EVQLLESGGGLVQPGGSLRLSCAASEFTFSDHAMSWVRQAPGKGLEWVATISSGGTYTYYPDSVKGRFTISRDNSKNTLYLQMNSLKAEDTAMYYCARHGFDYDAAWFAYWGQGTLVTVSS
VL: EIVLTQSPATLSLSPGERATLSCRANSAVSYMYWYQQKPGQAPRPWIYLTSNRATGVPARFSGSGSGTDYTLTISSLEPEDFAVYYCQQWTTNPPTFGQGTKLEIK
notes: IgG4 (S241P), kappa
In the case of B4, the binding result in assay [4] is on record as “binds”. In the assay with His-tagged CEACAM1 [8], binding was put at a Kd of 78 nM, the koff stood at 0.0075 s⁻¹, the kon stood at 96000 M⁻¹ s⁻¹ and the “relative KD to parent” value was 7.1. In addition, in the assay with His-tagged CEACAM1 [6], the dissociation constant (Kd) was 72 nM, the koff came out at 0.007 s⁻¹, the kon stood at 97000 M⁻¹ s⁻¹ and the “relative KD to parent” value worked out at 6.6.
